# Source: the RNAGym collection of RNA variant scans (doi:10.1073/pnas.2313332121)
# Fewer inactive variants are shown than the library holds.
# B1: TPR 5TU (parent)
# chain: GGAUCUUCUCGAUCUAACAAAAAAGACAAAUCUGCCACAAAGCUUGAGAGCAUCUUCGGAUGCAGAGGCGGCAGCCUUCGGUGGCGCGAUAGCGCCAACGUUCUCAACUAUGACACGCAAAACGCGUGCUCCGUUGAAUGGAGUUUAUCAUG
# Variants of: B1
# Experiment: polymerase ribozyme fitness, log enrichment relative to wild type (log ratio); higher = more active; in vitro selection for triplet polymerase activity
# Procedure, shortened: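 In triplicate, a single round of in vitro selection was run on each mutant library, PCR-built and transcribed, covering one subunit of a heterodimeric triplet polymerase ribozyme. Frozen incubation at −7 °C followed annealing with a biotinylated primer, partner subunit and triplets, and extended constructs were then gel-excised, streptavidin-captured and taken through RT-PCR. Fitness is the logarithm of genotype enrichment over wild-type enrichment, from inverse-variance-weighted replicate averages of Illumina-sequenced inputs and outputs. […] only genotypes with ≥10 input reads and ≥1 read per output were kept.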
row,Variant,polymerase ribozyme fitness (log ratio)
1,A3U C8A A39U A91G U111A A115U G117U,≤ -4.2
2,A3U G67U A107U,≤ -4.2
3,U4G U15G A30G A41U G46U C69G C76U C93G G143C,≤ -4.2
4,U4C G86A,-0.918
5,U4C G11U U53C,-2.27
6,A3U A41U,-1.29
7,C5A G59A C76U U77A G84A C118G C132G,≤ -4.2
8,A3U A49G,-0.232
9,A3C U6G C57U G74C C149U,≤ -4.2
10,A3U A49G G84C,-3.89
11,A3G U6A U31G G88U,≤ -4.2
12,U4C G50C U56A G74A C87A G88U C116U,≤ -4.2
13,A3G C18A A19G U33G C125U,≤ -4.2
14,A3U U6G C35G G50U U78G C79U G141U,≤ -4.2
15,C5A U55G G68C,≤ -4.2
16,C5G C10G A26C C93U A106G G140U,≤ -4.2
17,A3U U7A C14A A41C U45G C69A C87A G94A A121C,≤ -4.2
18,U4C C96A,-0.253
19,C5G G50U G81C G92C G143A,-2.74
20,U4C U6G G74C G80C G92U C103G A106U,≤ -4.2
21,U4A C8U A16U A40C U53A C57U C87A A97U U145G,≤ -4.2

row,Variant,polymerase ribozyme fitness (log ratio)
1,C5A C14G A19G C36A U102G C132G,≤ -4.2
2,C5A C72U C85U C95U,-0.0103
3,U4G C10U G83U A98U C105U,-0.982
4,C5G G48C U77A C85A G100A C103G C125A,≤ -4.2
5,C5G A147C,-0.562
6,C5A C76U G84U C125U G141U,-3.64
7,C5A U6G G46A U56A U82C C93A A107G C125U G136U,≤ -4.2
8,U4G G11C U44G,≤ -4.2
9,C5G C32G C72U A73G A91G A119U G141A,≤ -4.2
10,A3U C36A U55C C79A C99A U145G,≤ -4.2
11,U4G C38U C93G,-2.52
12,C5A A26C A30U A52C G70A G86C,≤ -4.2
13,A3G A20U C36A C87G C129A U139C U146G,≤ -4.2
14,A3U C18U G50A G68A C76A G92C C93U,≤ -4.2
15,U4C C43U C85U G133A G141U,≤ -4.2
16,A3G A22U A40U U44C C96G C116U U134C,≤ -4.2
17,C5A C27U U33G C79A,≤ -4.2
18,A3U G42U G48C C75G G86A C108A,≤ -4.2
19,U4A G11A A28U G65A C72U G80U G84C A91C A97C A106C C118U G141U,≤ -4.2
20,U4G A26U G50U C87A G141A A150U,≤ -4.2
21,C5A C18U G86U,-1.4

row,Variant,polymerase ribozyme fitness (log ratio)
1,A3U C27G C38U G48U G58U C79G G92A C105U G117U G143U,≤ -4.2
2,U4G U13G C93U A120G G143A U148C,≤ -4.2
3,C5G C32A C76A U109G G141C,≤ -4.2
4,C5G C32A C57U C99U,≤ -4.2
5,U4G A37U G81A C99A A106C U127G,≤ -4.2
6,C5G G67U G70C G86A C132G,≤ -4.2
7,A3U G143U,-2.76
8,C5A C93G,-2.32
9,C5A C54A C57A G58A G68A A89U C95G,≤ -4.2
10,C5A A22U C75U C76A G88A A89C A91G C105U A119G U144G,≤ -4.2
11,C5A A17U G83A U146G,-0.599
12,C5A U7C G92C U139G,-1.27
13,A3U G48C C51U C57U C95A A115C,≤ -4.2
14,C5A A28U,-3.92
15,U4G A12U A39C G62A C76U C87G A91U,≤ -4.2
16,A3U G59C,-0.00695
17,A3C U6G A22C A29C C85G C93U C108G G143A,≤ -4.2
18,A3G C38G G42U G59C G70C U78C C87A,≤ -4.2
19,C5G C85A C116A,0.0205
20,A3U A142C,-1.59
21,A3U U13C A41U C76U C123U,-2.89

row,Variant,polymerase ribozyme fitness (log ratio)
1,U4A A21G U55G U101G G152A,≤ -4.2
2,A3G U13A G42C C75U A138U,≤ -4.2
3,U4A C8G U13G A24C C96U,≤ -4.2
4,U4G G11C A40U G50C G83U,≤ -4.2
5,A3U C105G,-1.75
6,A3U C108U,-3.59
7,U4G C75G A91U G92A U101G C125U,≤ -4.2
8,A3G C8G A22U A26G G46C C96U,≤ -4.2
9,U4A C54U G92U C118U U134A,-3.6
10,A3U U15C G81U A97U G128U,-3.58
11,A3U A20U C32U G70U G84U A120C,≤ -4.2
12,U4A A147C,-0.789
13,U4A G48U C57G C93U G136A U146G,-2.55
14,A3G A12C C76G C93A C96A G136C,≤ -4.2
15,C5A A20G A22C C35A U77G C87A A115C G124C,≤ -4.2
16,U4C U56G C63U C93G,-3.11
17,A3U G46C U77C G86U A98U A121U U127A,-4.08
18,C5G C76U,-0.335
19,C5G C105U,-0.0507
20,A3U A12G A28U C87U,≤ -4.2
